Measured values: patent publication US20230381328A1, “COMPOUND FOR THE PREVENTION OR TREATMENT OF MYASTHENIA GRAVIS” (ABLEVIA BIOTECH GMBH, priority 2020, published 2023)
Where no end group is shown, it is not given here.

Molecular target: monoclonal antibody mAB 198
Experiment: peptide microarray, fluorescence, cyclic peptide

| relative signal [%] | Binder |
| --- | --- |
| 9.7 | RLLWNPADY (also: cyclic peptide, ring type and places not given here) |
| 8.7 | NPADYGN (also: cyclic peptide, mode of cyclisation not given here) [NPADYGN, cyclic mimotope] |
| 9 | WNPDDYR (also: cyclic peptide, mode of cyclisation not given here) [WNPDDYR, cyclic mimotope] |
| 10.5 | DVRLRWNPSDY (also: cyclic peptide, mode of cyclisation not given here) |
| 8.7 | GSLRWNPADYT (also: cyclic peptide, mode of cyclisation not given here) |
| 9.4 | SLYWNPADY (also: cyclic peptide, mode of cyclisation not given here) |
| 9.1 | RWNPADF (also: cyclic peptide, ring type and places not given here) [RWNPADF, cyclic mimotope] |
| 10.3 | GGSLRWNPADR (also: cyclic peptide, mode of cyclisation not given here) |
| 9.8 | RLRPNPADY (also: cyclic peptide, ring type and places not given here) |
| 11.8 | NPADYGY (also: cyclic peptide, ring type and places not given here) [NPADYGY, cyclic mimotope] |
| 8.6 | LRFNPAD (also: cyclic peptide, mode of cyclisation not given here) [LRFNPAD, cyclic mimotope] |
| 10.8 | RLHWNPADY (also: cyclic peptide, ring type and places not given here) |
| 12.2 | RANPADY (also: cyclic peptide, ring type and places not given here) [RANPADY, cyclic mimotope] |
| 10.1 | RLRWNPADYHG (also: cyclic peptide, ring type and places not given here) |
| 8.7 | SLRWNPADYHG (also: cyclic peptide, mode of cyclisation not given here) |
| 9.7 | VRLRLNPADYG (also: cyclic peptide, mode of cyclisation not given here) |
| 10 | LRPNPADYG (also: cyclic peptide, mode of cyclisation not given here) |
| 12.1 | GSLRINPADYG (also: cyclic peptide, mode of cyclisation not given here) |
| 11 | RWNPADR (also: cyclic peptide, ring type and places not given here) [RWNPADR, cyclic mimotope] |
| 9.9 | VRLRGNPAD (also: cyclic peptide, mode of cyclisation not given here) |
| 9.1 | LRGNPAD (also: cyclic peptide, mode of cyclisation not given here) [LRGNPAD, cyclic mimotope] |
| 10.7 | QLRWNPADY (also: cyclic peptide, ring type and places not given here) |
| 9.7 | GSLRWNPADYQ (also: cyclic peptide, mode of cyclisation not given here) |

| relative signal [%] | Binder |
| --- | --- |
| 11.5 | RIRWNPADY (also: cyclic peptide, ring type and places not given here) |
| 9.9 | TLRWNPADY (also: cyclic peptide, mode of cyclisation not given here) |
| 10 | GSLRWNPADYN (also: cyclic peptide, mode of cyclisation not given here) |
| 9.8 | RSRWNPADY (also: cyclic peptide, ring type and places not given here) |
| 10 | RLRWNPADYGP (also: cyclic peptide, ring type and places not given here) |
| 10.5 | VRLRWNPADYS (also: cyclic peptide, mode of cyclisation not given here) |
| 8.8 | DVRLRQNPADY (not fully specified; cyclic peptide) [DVRLRONPADY, cyclic mimotope] |
| 11.5 | ALRWNPADY (also: cyclic peptide, mode of cyclization not given here) |
| 11.9 | RPNPADYGG (also: cyclic peptide, ring type and places not given here) |
| 10.3 | LRWNPADYGGF (also: cyclic peptide, mode of cyclisation not given here) |
| 10.4 | GSLRFNPADYG (also: cyclic peptide, mode of cyclisation not given here) |
| 9 | RLRGNPADYGG (also: cyclic peptide, ring type and places not given here) |
| 10.5 | DVRLRYNPADY (also: cyclic peptide, mode of cyclisation not given here) |
| 8.9 | LRWNPADYPGI (also: cyclic peptide, mode of cyclisation not given here) |
| 10.2 | GSLRWNPADYD (also: cyclic peptide, mode of cyclisation not given here) |
| 9.7 | RLRWNPADYGS (also: cyclic peptide, ring type and places not given here) |
| 11.5 | GGSLRYNPADY (also: cyclic peptide, mode of cyclisation not given here) |
| 10.3 | LRWNPADYR (also: cyclic peptide, mode of cyclisation not given here) |
| 10 | VRLRINPADYG (also: cyclic peptide, mode of cyclisation not given here) |
| 8.6 | RLRTNPADY (also: cyclic peptide, ring type and places not given here) |
| 8.5 | GGSLRLNPADY (also: cyclic peptide, mode of cyclisation not given here) |
| 10.6 | RLRQNPADY (not fully specified; cyclic peptide) [RLRONPADY, cyclic mimotope] |
